Source: article PMC5993293

Columns and labels:
[1] = biological target: GST-TA3mut (functionally impaired TA3 mutant, aa 361-370 replaced by alanines, fused to GST) (mouse) (UniProt Q04207); test: pull-down; GST alone, GST-TA3 or GST-TA3mut as baits; transfected HEK-293 cells overexpressing tagged Zbtb7a; Zbtb7a detected by immunoblotting
[2] = biological target: GST-TA3mut (functionally impaired TA3 mutant, aa 361-370 replaced by alanines, fused to GST) (mouse) (UniProt Q04207); test: affinity purification with mass spectrometry; SILAC; GST baits (GST-TA3, GST-TA3mut) immobilised; nuclear extracts of TNF-α-treated HeLa S3 cells or of 3T3 fibroblasts, 4 hours at 4°C; wash 20 mM Hepes pH 7.6, 1 mM EDTA, 10% glycerol, 0.1% NP40, 100 mM KCl; elution with 0.2% sarkosyl; label swap, four biological replicates

Sequence of UniProt Q04207 (Q04207 other isoform, or with tags, fused parts or gaps, change not shown): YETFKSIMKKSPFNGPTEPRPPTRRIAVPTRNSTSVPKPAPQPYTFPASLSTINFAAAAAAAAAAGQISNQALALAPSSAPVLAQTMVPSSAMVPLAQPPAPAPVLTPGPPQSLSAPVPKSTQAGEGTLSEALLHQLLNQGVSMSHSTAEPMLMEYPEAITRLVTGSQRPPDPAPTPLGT

Row | fold reduction of binding against unmutated TA3 [1] [times] | fold reduction of binding against unmutated TA3 [2] [times] | Substance
1 | 2 |  | tagged Zbtb7a overexpressed in transfected HEK-293 cells (from UniProt O88939 1-569) (natural protein)
2 |  | 5 to 7 | Zbtb7a, endogenous in nuclear extracts of TNF-α-stimulated human HeLa S3 cells (from UniProt O95365 1-584) (natural protein)
